T1: mannose receptor on mouse J774E macrophage cells (mouse) (UniProt Q61830)
T1 sequence (looked up): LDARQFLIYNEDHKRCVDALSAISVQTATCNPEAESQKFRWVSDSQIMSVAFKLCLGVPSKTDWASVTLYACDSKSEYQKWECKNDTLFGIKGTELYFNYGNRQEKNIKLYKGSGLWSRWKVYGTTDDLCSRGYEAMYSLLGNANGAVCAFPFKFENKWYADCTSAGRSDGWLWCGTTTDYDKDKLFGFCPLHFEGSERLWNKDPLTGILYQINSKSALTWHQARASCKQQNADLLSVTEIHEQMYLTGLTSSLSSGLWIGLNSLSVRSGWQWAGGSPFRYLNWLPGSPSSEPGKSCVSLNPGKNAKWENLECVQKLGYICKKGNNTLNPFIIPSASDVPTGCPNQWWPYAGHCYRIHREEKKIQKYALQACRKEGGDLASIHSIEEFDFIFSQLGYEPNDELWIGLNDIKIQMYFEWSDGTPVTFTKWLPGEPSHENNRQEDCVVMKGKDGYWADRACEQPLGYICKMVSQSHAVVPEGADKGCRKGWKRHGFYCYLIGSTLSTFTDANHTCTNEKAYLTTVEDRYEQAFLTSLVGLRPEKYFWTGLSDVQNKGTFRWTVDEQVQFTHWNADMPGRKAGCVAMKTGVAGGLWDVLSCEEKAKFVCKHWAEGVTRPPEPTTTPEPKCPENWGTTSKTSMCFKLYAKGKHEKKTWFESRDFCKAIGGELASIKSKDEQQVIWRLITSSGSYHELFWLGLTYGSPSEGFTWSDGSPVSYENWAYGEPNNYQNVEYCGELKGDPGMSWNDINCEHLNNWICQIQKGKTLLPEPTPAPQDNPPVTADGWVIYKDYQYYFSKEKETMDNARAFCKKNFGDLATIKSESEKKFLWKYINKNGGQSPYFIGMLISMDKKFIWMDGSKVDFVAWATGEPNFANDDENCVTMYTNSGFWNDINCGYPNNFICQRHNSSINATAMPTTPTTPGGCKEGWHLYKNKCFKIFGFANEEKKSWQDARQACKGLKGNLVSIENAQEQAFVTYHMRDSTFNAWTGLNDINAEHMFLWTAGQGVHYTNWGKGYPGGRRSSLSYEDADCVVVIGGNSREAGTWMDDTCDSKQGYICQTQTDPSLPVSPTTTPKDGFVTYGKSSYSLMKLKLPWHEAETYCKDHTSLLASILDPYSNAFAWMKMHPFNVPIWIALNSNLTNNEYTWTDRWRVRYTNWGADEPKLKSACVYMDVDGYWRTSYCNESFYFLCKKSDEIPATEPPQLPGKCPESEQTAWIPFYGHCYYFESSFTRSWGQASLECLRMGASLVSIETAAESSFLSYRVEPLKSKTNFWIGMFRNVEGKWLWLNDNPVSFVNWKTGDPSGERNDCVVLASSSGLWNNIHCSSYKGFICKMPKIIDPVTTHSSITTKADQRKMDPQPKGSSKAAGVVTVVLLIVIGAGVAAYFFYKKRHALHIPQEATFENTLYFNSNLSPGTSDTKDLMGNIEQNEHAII


Biological target: T1, mannose receptor on mouse J774E macrophage cells (mouse)
Experiment: cell-based or functional assay

Inhibition (%) of uptake into J774E cells by mannan [%] | Internalization into J774E cells in the presence of 2 µg/mL mannan: glucocerebrosidase activity (Units/mg cell lysate), absolute (Units/mg cell lysate) | Internalization into J774E cells in the presence of 2 µg/mL mannan: glucocerebrosidase activity (Units/mg cell lysate), background corrected (Units/mg cell lysate) | Internalization into J774E cells: glucocerebrosidase activity (Units/mg cell lysate), absolute (Units/mg cell lysate) | Internalization into J774E cells: glucocerebrosidase activity (Units/mg cell lysate), background corrected (Units/mg cell lysate) | Uptake into J774E cells, fold over background [fold] | Uptake into J774E cells relative to GA-GCB from swainsonine treated cells [fold] | Binder
53 | 1680 | 1020 | 2820 | 2160 | 3 |  | Gene-Activated GCB (GA-GCB) from untreated HT-1080 cells (enzyme, N-linked glycans as processed by untreated HT-1080 cells (no mannosidase inhibitor)) ARPCIPKSFGYSSVVCVCNATYCDSFDPPTFPALGTFSRYESTRSGRRMELSMGPIQANHTGTGLLLTLQPEQKFQKVKGFGGAMTDAAALNILALSPPAQNLLLKSYFSEEGIGYNIIRVPMASCDFSIRTYTYADTPDDFQLHNFSLPEEDTKLKIPLIHRALQLAQRPVSLLASPWTSPTWLKTNGAVNGKGSLKGQPGDIYHQTWARYFVKFLDAYAEHKLQFWAVTAENEPSAGLLSGYPFQCLGFTPEHQRDFIARDLGPTLANSTHHNVRLLMLDDQRLLLPHWAKVVLTDPEAAKYVHGIAVHWYLDFLAPAKATLGETHRLFPNTMLFASEACVGSKFWEQSVRLGSWDRGMQYSHSIITNLLYHVVGWTDWNLALNPEGGPNWVRNFVDSPIIVDITKDTFYKQPMFYHLGHFSKFIPEGSQRVGLVASQKNDLDAVALMHPDGSAVVVVLNRSSKDVPLTIKDPAVGFLETISPGYSIHTYLWRRQ
67 | 2040 | 1380 | 4790 | 4130 | 7 |  | Gene-Activated GCB (GA-GCB) from HT-1080 cells treated with swainsonine (1 µg/mL) (enzyme, N-linked glycans not trimmed by Golgi mannosidase II (cells treated with the class 2 mannosidase inhibitor swainsonine, 1 µg/mL)) ARPCIPKSFGYSSVVCVCNATYCDSFDPPTFPALGTFSRYESTRSGRRMELSMGPIQANHTGTGLLLTLQPEQKFQKVKGFGGAMTDAAALNILALSPPAQNLLLKSYFSEEGIGYNIIRVPMASCDFSIRTYTYADTPDDFQLHNFSLPEEDTKLKIPLIHRALQLAQRPVSLLASPWTSPTWLKTNGAVNGKGSLKGQPGDIYHQTWARYFVKFLDAYAEHKLQFWAVTAENEPSAGLLSGYPFQCLGFTPEHQRDFIARDLGPTLANSTHHNVRLLMLDDQRLLLPHWAKVVLTDPEAAKYVHGIAVHWYLDFLAPAKATLGETHRLFPNTMLFASEACVGSKFWEQSVRLGSWDRGMQYSHSIITNLLYHVVGWTDWNLALNPEGGPNWVRNFVDSPIIVDITKDTFYKQPMFYHLGHFSKFIPEGSQRVGLVASQKNDLDAVALMHPDGSAVVVVLNRSSKDVPLTIKDPAVGFLETISPGYSIHTYLWRRQ
73 | 2980 | 2320 | 9180 | 8530 | 14 | 2 | Gene-Activated GCB (GA-GCB) from HT-1080 cells treated with kifunensine (1 µg/mL) (enzyme, N-linked high mannose glycans (cells treated with the class 1 mannosidase inhibitor kifunensine, 1 µg/mL)) ARPCIPKSFGYSSVVCVCNATYCDSFDPPTFPALGTFSRYESTRSGRRMELSMGPIQANHTGTGLLLTLQPEQKFQKVKGFGGAMTDAAALNILALSPPAQNLLLKSYFSEEGIGYNIIRVPMASCDFSIRTYTYADTPDDFQLHNFSLPEEDTKLKIPLIHRALQLAQRPVSLLASPWTSPTWLKTNGAVNGKGSLKGQPGDIYHQTWARYFVKFLDAYAEHKLQFWAVTAENEPSAGLLSGYPFQCLGFTPEHQRDFIARDLGPTLANSTHHNVRLLMLDDQRLLLPHWAKVVLTDPEAAKYVHGIAVHWYLDFLAPAKATLGETHRLFPNTMLFASEACVGSKFWEQSVRLGSWDRGMQYSHSIITNLLYHVVGWTDWNLALNPEGGPNWVRNFVDSPIIVDITKDTFYKQPMFYHLGHFSKFIPEGSQRVGLVASQKNDLDAVALMHPDGSAVVVVLNRSSKDVPLTIKDPAVGFLETISPGYSIHTYLWRRQ

Reference: US7138262
